Experimental data taken from patent US10801046B2, “Methods and materials for biosynthesizing multifunctional, multivariate molecules via carbon chain modification” (INVISTA NORTH AMERICA S.A.R.L., priority 2016, dated 2020).

B1: SEQ ID NO: 203: Labilithrix luteola carboxylate reductase (protein, listed as Labilithrix luteola)
chain: MDISRFLDLRIAPRAVFDALEERKTRARFMVPTAPGSNEWRPVTWGAFAQEIRELALFLSTVLSSGDRGAVYAPNRVEWASAALAIQAAGGVIVPIYPASTPDQLSYVASHSDAKVIFVDTAPLLTRLFATWNSTPGVEKIVVLDDGIDVARVYESAREKGIPVPSLDAVERKVLSIGKARGIGAARDQEDPQAFERTMAAISLDQAGMMLYTSGTSGNPKGVPLTHRNVAVNGLDWLKCNYPLLEEGDVDILWLPMSHIFGFGEMCLGNTLGWTSYLADPATCLGRLPEVTPNIFMSVPSHWEKLALMAMHEPTPQARLDKFKAATGGKLRFCLSGGAGLKREVKDFFYSCGVLIVEGYGLTETSPTLTLNRPDAFRFDTVGKTLPSVELRLADDGEILARGASVFGGYHKDPEATREAFTEDGWFKTGDVGRFTDDGFLQIIDRKKDILVTAGGKNVPPANIEIRFQDDPLFAHVVVYGDAKKYLVAGVWLNEEAMSSQLASVPKDQQESARRDLVQKRIDHVNASLASYETIKKFSIIGEPLTVEAGLLTPSLKMRRKKVYEHFHGIFEGMFEDTQGKGAASSTASQGSGA
B2: SEQ ID NO: 200: Tetrahymena thermophila (strain SB210) carboxylate reductase (protein)
chain: MGANQSSRIYNVPIDEKKDGYSQIMRHPKYIDKLEYKPIPEIDNVQDLVLHGYSNSKEMNFFGKKNPVSNEFEYMTYDQVIEQAKQLGSAVKNLQFLKESSEQSNQKMELIGIYSKNRIEWGIADIANSLYGYTMVPLYDSLGPDSISYVLANSEITTCYCSAASVLTLSKTKDLHHLKNIISFDHVSEDLIELVKQRGIVVHLFKDIVEKGSLNVLPLPKLTRDTIFTFCYTSGTTGNPKSAMISHKNILASVTNYDKSDCFLTQDDVHLSYLPLPHIYERFINVYCWFKGTKIAFYSGDVHKIQEDIIASKPTCFSAVPRLLNRFYDAINSKLNQATGFQKILIQHALQTKLENIQKNGVYTHILYDKIIFNKIREQFGGRIRQLVCGSAPTSPKVFDFFKAVLSCSVIEGFGQTELSGVVTIQVKADPKMGNVGGIGPSSELKLEDVPEMEYLSTDKDELGNPKPRGEICVRGYNVFSGYYKDEEKTKEAIDQEGWFHTGDIGEIIPNGGLKIIDRKKNLFKLSQAEYVSPEKVENIYVRARGVQEVYIHGESLYNYCIGIIVPSQEELLKIAAELNISETDIASLCKNQQIISWYIKTIHNLGKHEGLFSFEQPKKIYLEPKSFLVIGCVTNSFKLQRHHAKNYFKNIIQELYNNNNNQ
modifications: Tetrahymena thermophila (strain SB210)
notes: Tetrahymena thermophila (strain SB210) carboxylate reductase
B3: SEQ ID NO: 201: Auxenochlorella protothecoides carboxylate reductase (protein)
chain: MSTFPPLDAQCVVLPEKLNAPGPWTVRRNANFPEALIDSFDGEESHVRTCYDLLEHSVVKYPDSPYLGTRSVDARGAPGPYAWLSYSQVGEARTQIGSGLAHLGVRPGSNVGLFSTNCADWVLVDAALHAYACVSVPLYDTLGADVVQFVNNHAELAAVACSAATLPALLETLPASPTVAVVVVYAAPAGFRMPATPPGSAARLVSLDRLRALGMKHPSPHVPPSPADTALINYTSGTTGMPKGVVLTHANIVASIAGQIRSTAVLATIDATERHISYLPLAHIFERVTYMSVTHRGGAIGFFRGDVLTLLEDIQALRPTYFPSVPRLWNRIYDRIMAQVAASSPVKRRLFETAYAYKKRHMAAGDMTGGPWAGFWNRLVFNKIKQAVGGEVRMMVSGASALSPEVFEFMRIVFDCVVIEGYGMTETTSGATISIPGDPVIGHVGIPTPACEVKLADVPEMGYTNADLPRPRGEICVRGPLRFKEYYKDPENTRETIDEEGWLHTGDIGTWLPGERLKIIDRKKNIFKLSQGEYVAPEKIENIYVRSPYVAQVFVHGDSLRSCIVGVVVPDPEVLLPWAKQRGLPQDLATLCEDEQVKAMIQKSLSEEARVAKLKGFEQVADIVLTPVPFSVETGTMTPTFKLKRPQLREAYAPALEAMYARLPM
modifications: Auxenochlorella protothecoides
notes: Auxenochlorella protothecoides carboxylate reductase
B4: SEQ ID NO: 204: Geotrichum candidum carboxylate reductase (protein, listed as Geotrichum candidum)
chain: MSATLNGTQFPPEVAARLRTYPIATDPSVNANTPLITDPVTVKPYKIGKPQAVPVPGSKVDGFSEVYRNAHCPDRLVTTVHPKITTVVEAFDACVSEYKNEKALGERVFDGKTKTWSKIYQYETYGTIAKRRLDIGKGISKVVQDVTGFDSRQTPYCLGLYGPNCSNWILTDLAAQTQSIPTVCLYDTLGPDSTRYIMTLTEMPAIVCSVAHIPFVLNIKDELPNLKVIIAMNPINNPDIVDKPGQSKKDVLTAWAKKSGVELFEFTEVEKIGRESGRGLHLPGPDTVLTINFTSGTTGNPKGVVISQANVLAGTIVARSQSTFNHRGSSGFLSFLPLAHIYERLTIHSVLTSGIPIGFFHGDVAELLDDIATYHPTIVAGVPRIWNRIAGAIRASTIEAPGIAGALSRKAYTTKLARLHETGDYHHPIWDRLWSNKIRTKTGFDQAKTFVTGSAPMARENIELIKVALGVEFVQGYGLTETMGGISVCSPGDNTAGSVGPVAITTEVKLRDLPTMNYSSSDKPFPRGEIMIRGPQVFMGYYKNEEATKGSIDEDGWFSSGDVGMIDDLGRLYVIDRVKNFFKLAQGEYVGPERIEALYQSSSGLVAQIFVEGNSLETYLVGIVGVNPEAYVQFLSHNFKMHIKPTDLEAIKKTFSRKDIRDTFLLELNVHAKDAQLKGYEKIKNVTLAIEPFSVENGTLTPTLKVKRPDAARLFKADVDAMYKEGPVEVKSKL
B5: SEQ ID NO: 199: Caenorhabditis elegans carboxylate reductase (protein)
chain: MVDESDVKSALNGHDRPFTITLAIVLLKIVFFIYDVVTFIPFKIFADPAEKLEKSERVKAEPDNGDPTTPWKNVSAKDGLMNSSFEGIHDLGTQWEECVRRYGNQPCMGTREVLKVHKEKQSNGKIFEKWQMGDYHWRSYAQVDKRVNMIASGLTSLGQQEKEPIILFAETREEWMTTALACMKMNFPIATMYATLGDEAVQFAINEVGAKTIFTSEALISKVKKAMSNGATSIENIIFFDSVDPASRGESVDVDLPFTLLSFDQLLSRGEPYPVPTRSKKDDLAFIMYTSGTTGNPKGVMISHQNIVAVTAGQAFNIVLGPDDRYIGYLPLAHILEVCAEMVVFTKGVRIGYSSAQTLFDRAPKIMKGEHGDCWVLQPTLMACVPAVMDRIFKAVIDEVNANSELFKQLFKTCYERKRSRYEEGYTSFILNKLVFNRIGKLLGGKVRQILSGGAPLSPETQRFMNICFCCPVVQGYGLTETCGGGTIADIHDLSTGTVGPPLTCCEILLQEWAEAGYSPKNDPPQGEILISGPNVALGYFKNDEKTKEEFVKVNGKTFFATGDIGEFREDGSLKIIDRKKDLLKLAHGEYISLGKVETNLLTNPNVDNVCVYGDSNKSFLVALVVPNQKNLTQLASKAGASNDNFEKLCEDKKVVEALQKELAQYGASKLQRVEIPQKIFICHEPWTPASGLLTEALKLKRKNIEKAFRKELDELYK
modifications: Caenorhabditis elegans
notes: Caenorhabditis elegans carboxylate reductase
B6: SEQ ID NO: 198: Pestalotiopsis fici W106-1 carboxylate reductase (protein)
chain: MESYIEKARRYAQPPPPGAPQGVAVPNSKLPGRSAVYRHWRRGDELPDYFDPDLSSGYDMFEQTAKRQPDARCLGYRPYNGSTKSFGPYIWYSYDNVLKRSTDFGKGLAELLEANGVGGRQRPVGLWCANRPEWQFVDLGAMSQSLYSISLYETLGPAATEFLINHAEIPVVCASLEHIPALILAAPRCPSLKLIISLDPLTEEIDAPGTSRKELLSSLAAEKGLQVHDFRDVEKAGQASSRSLNRPRPDDIFTINYTSGTTGNPKGVVLRHSNAVAATVTCLTVYPMRSSDVLCSYLPLAHIYERFVEISAMYGGGSIGYFHGNPLELIDDLKLLRPTIFTSVPRLLNRMGSSIKAATIEQQGVKGALSRYIMETKMANIENDDPAKATNKHMVYDRIWGRKITAALGLDRTVHMMSGSAPLDGGLQQFLRIVFATEIVQGYGSTEMFAICLAQSAGDMSVRNCGGPAACVEVCLLDLPDMGYFSSDQPCPRGELLMRGPNVFSEYYKDDEETSKAFTEDGWFKTGDICAVDELGRFSIIDRRKNLLKLAQGEYISPEHIENVLLAQRPWLAQGYVHGDSAEAHLVGIFGVQPDIFCNFLNRTLGKECKPEDTDQLEAVLQEPEVRSAVVKELAMVGKSAKLNSYEIPRAVRLMIEPFTVENGLLTPTLKLKRPQTAKKFDHLIKEMYAETRKTSTLMAKL
modifications: Pestalotiopsis fici W106-1
notes: Pestalotiopsis fici W106-1 carboxylate reductase
B7: SEQ ID NO: 202: Lichtheimia corymbifera carboxylate reductase (protein)
chain: MVTLTMDKQTIEIPNDVPGESPILRRTPELMDSFVPGINNIYDLFYNGYKLSRDQPCLGERPILDRTTGERAKQFEWQTYEQVAARVDNFGSGLKHVLQQIGESRPKQIPIGIWSVNRPEWHIVDWACAAHSLYVVALYDTLGPDTVEYVVNHAEIQVVVCTKEHVTDLLKLRSKLPQLKAIISFDTLEKEQSQALHAWAEEKDLLLVEFANVEQHGKENPVPHNPAQRSDLACIMYTSGTTGKSKGVMLTQGNFVAAVSGAIYNVKSSPADVGISYLPLGHIYGRVADAFTVAGGASLGFFSGKVDNLLEDMQILKPTLFNTVPRLLNRIYTGIVQSTLQAPGMMKKSTMSLIWNCSLGITDVGPKGALFRKAIATKLENLEQGKGTQHPVYDRLLFDKVRQVLGGRVRFINTGAAPLGKEVMQLLRVTLLADIRESYGATESCASLTMQIEGDPKPGCIGIPAPCNEMKLIDVPEMNYLTTDKPYARGEICVRGYNVSLGYYKDEEKTKEAFDKDGFYHTGDIGMIDERGTFMVIDRKKNIFKLSQGEYIAPEKIENIYARDILVSQIFVYGDSVQSCLVAIVVPDPIELGKLAQEKLPKLTSLSYEELCNNPEVHIAVLERMMENGKRAEMRGFEFVKAIHLDSKPFTVENNLLTPSLKLKRPEARKFFQKEIEQLYQKLSNSSAGSAARL
modifications: Lichtheimia corymbifera JMRC:FSU:9682
notes: Lichtheimia corymbifera carboxylate reductase

assay: In vivo carboxylate reductase screening, substrate consumption by LC-MS, heptanedioate; assay type: cell-based, Escherichia coli; details: 541 enzymes screened in vivo
Description: To screen carboxylate reductases in vivo, […] T7- pUC expression vectors was co-transformed into T7 Express lysY/Iq with the phosphopantetheinyl transferase sfp from Bacillus subtilis on a T7-pCDF expression vector. Biological duplicates of the resulting strains were incubated in 0.5 mL of terrific broth containing either 1 g/L heptanedioate or 1 g/L monomethyl heptanedioate and supplemented with 0.4 mM IPTG in 96-well deep well plates. The plates were incubated for 30 h at 30° C. in a shaking incubator. The cells were then pelleted, and culture supernatants from the same strains in media containing either heptanedioate or monomethyl heptanedioate were combined. The combined supernatants were analyzed by LC-MS to determine the concentration of heptanedioate and monomethyl heptanedioate. Carboxylate reductase activity on heptanedioate or monomethyl heptanedioate was reflected by consumption of the respective substrate in the medium.

Row | Molecule | substrate preference, heptanedioic acid to 7-oxoheptanoate
1 | B1 | preferred acting upon heptanedioic acid to form 7-oxoheptanoate
2 | B2 | preferred acting upon heptanedioic acid to form 7-oxoheptanoate
3 | B3 | preferred acting upon heptanedioic acid to form 7-oxoheptanoate
4 | B4 | preferred acting upon heptanedioic acid to form 7-oxoheptanoate
5 | B5 | preferred acting upon heptanedioic acid to form 7-oxoheptanoate
6 | B6 | preferred acting upon heptanedioic acid to form 7-oxoheptanoate
7 | B7 | preferred acting upon heptanedioic acid to form 7-oxoheptanoate
